Where two headings read alike, the source gives them in different places.

In one data set the test system is OVCAR8/LGR5 cells. Briefly: Growth rate inhibition assay (CCK8, 120 h exposure). It is filed as cell-based, human.
The nature of data set [1]: Plasma pharmacokinetics after IV injection (ELISA). Background: In an ELISA, binding on a coated surface is turned into a signal by an enzyme label.
A short description of data set [2]: Stability of FcST4-MMAE (storage, low pH, freeze and thaw). It is filed as physicochemical. As to the method:
Based on the hypothesis that RSPO1 could be used to target cytotoxic drugs selectively to CSC, a compound that contained 2 binding domains and armed this with the cytotoxin monomethylaurostatin (R1FF-MMAE) was generated. Since affinity of a ligand can be affected by the number of binding sites, tests were performed to see if the potency of R1FF-MMAE could be further enhanced by increasing the number of binding domains. A vector capable of expressing a protein containing 4 modified binding domains was constructed, and the FcST4-His protein was successfully produced in transiently transfected HEK293E cells and purified using nickel and ion exchange resins. Following attaching MMAE to the polypeptide using the sortase reaction, this drug (FcST4-MMAE) was characterized using gel electrophoresis, HPLC analysis on ion exchange and size exclusion columns, Western blot, and cytotoxicity testing.
To assess the stability of the FcST4-MMAE molecule, the sample was subjected to multiple freeze and thaw cycles.

Data set [3] has as its system HEK293e empty vector cells versus cells overexpressing LGR5 receptors. The experiment in a line: FcST4-MMAE cytotoxicity assay (CCK8, day 6). The class given is cell-based, human. To be noted: batches 2-6.
Data set [4] concerns OVCAR8 cells expressing empty vector versus cells overexpressing LGR5 receptors. The experiment in a line: FcST4-MMAE cytotoxicity assay. It is filed as cell-based, human.
The mark [5] stands for this setting: OVCAR8/EV vs OVCAR8/LGR5, 120 h, Fu1/Fu2 binding-disabling mutation study.
The mark [6] stands for this setting: OVCAR8/EV and OVCAR8/LGR5, proteins produced in ExpiCHO.

B1: FcF2-Q71R-MMAE (conjugate)
chain: EPKSCDKTHTCPPCPAPELLGGPSVFLFPPKPKDTLMISRTPEVTCVVVDVSHEDPEVKFNWYVDGVEVHNAKTKPREEQYNSTYRVVSVLTVDHHDWLNGKEYKCKVSNKALPAPIEKTISKAKGQPREPQVYTLPPSRDELTKNQVSLTCLVKGFYPSDIAVEWESNGQPENNYKTTPPVLDSDGSFFLYSKLTVDKSRWQQGNVFSCSVMHEALHSHYTQKSLSLSPGKGGGGSGGGGSSRGIKGKRQRRISAEGSQACAKGCELCSEVNGCLKCSPKLFILLERNDIRRVGVCLPSCPPGYFDARNPDMNKCIKCKIEHCEACFSHNFCTKCKEGLYLHKGRCYPACPEGSSAANGTMECSSPGGGGSGGGGSLPETGGG
modifications: non-natural residues
Consider B1, for which the IC50 ratio in the data set on OVCAR8/LGR5 cells (setting [5]) was 5.1.

B2: FcF2-R30A-MMAE: FcF2-MMAE with R30A substitution in the Fu1-Fu2 region (SEQ ID NO: 102) (conjugate)
chain: EPKSCDKTHTCPPCPAPELLGGPSVFLFPPKPKDTLMISRTPEVTCVVVDVSHEDPEVKFNWYVDGVEVHNAKTKPREEQYNSTYRVVSVLTVDHHDWLNGKEYKCKVSNKALPAPIEKTISKAKGQPREPQVYTLPPSRDELTKNQVSLTCLVKGFYPSDIAVEWESNGQPENNYKTTPPVLDSDGSFFLYSKLTVDKSRWQQGNVFSCSVMHEALHSHYTQKSLSLSPGKGGGGSGGGGSSRGIKGKRQARISAEGSQACAKGCELCSEVNGCLKCSPKLFILLERNDIRQVGVCLPSCPPGYFDARNPDMNKCIKCKIEHCEACFSHNFCTKCKEGLYLHKGRCYPACPEGSSAANGTMECSSPGGGGSGGGGSLPETGGG
modifications: non-natural residues
With B2, the “potency and selectivity for LGR5-rich cells compared with FcF2-MMAE (WT)” value in the data set with OVCAR8/LGR5 cells is “neither the R28A nor the R30A mutation altered potency of selectivity”.

B3: FcF-Q71R-F106R-F110R-MMAE (conjugate)
chain: EPKSCDKTHTCPPCPAPELLGGPSVFLFPPKPKDTLMISRTPEVTCVVVDVSHEDPEVKFNWYVDGVEVHNAKTKPREEQYNSTYRVVSVLTVDHHDWLNGKEYKCKVSNKALPAPIEKTISKAKGQPREPQVYTLPPSRDELTKNQVSLTCLVKGFYPSDIAVEWESNGQPENNYKTTPPVLDSDGSFFLYSKLTVDKSRWQQGNVFSCSVMHEALHSHYTQKSLSLSPGKGGGGSGGGGSSRGIKGKRQRRISAEGSQACAKGCELCSEVNGCLKCSPKLFILLERNDIRRVGVCLPSCPPGYFDARNPDMNKCIKCKIEHCEACRSHNRCTKCKEGLYLHKGRCYPACPEGSSAANGTMECSSPGGGGSGGGGSLPETGGG
modifications: non-natural residues
In the case of B3, the IC50 ratio entry in the data set with OVCAR8/LGR5 cells (setting [5]) was “selectivity was abolished”.

B4: FcF2-R28A-MMAE: FcF2-MMAE with R28A substitution in the Fu1-Fu2 region (SEQ ID NO: 98) (conjugate)
chain: EPKSCDKTHTCPPCPAPELLGGPSVFLFPPKPKDTLMISRTPEVTCVVVDVSHEDPEVKFNWYVDGVEVHNAKTKPREEQYNSTYRVVSVLTVDHHDWLNGKEYKCKVSNKALPAPIEKTISKAKGQPREPQVYTLPPSRDELTKNQVSLTCLVKGFYPSDIAVEWESNGQPENNYKTTPPVLDSDGSFFLYSKLTVDKSRWQQGNVFSCSVMHEALHSHYTQKSLSLSPGKGGGGSGGGGSSRGIKGKAQRRISAEGSQACAKGCELCSEVNGCLKCSPKLFILLERNDIRQVGVCLPSCPPGYFDARNPDMNKCIKCKIEHCEACFSHNFCTKCKEGLYLHKGRCYPACPEGSSAANGTMECSSPGGGGSGGGGSLPETGGG
modifications: non-natural residues
Regarding B4, the “potency and selectivity for LGR5-rich cells compared with FcF2-MMAE (WT)” value with OVCAR8/LGR5 cells was “neither the R28A nor the R30A mutation altered potency of selectivity”. For the same molecule, in data set [1] (IV injection), the “increase of AUC0-120 versus FcF2-MMAE (WT)” value was found to be 3.4 fold and the “initial half-life versus FcF2-MMAE (WT)” value was “prolonged the initial half-life”. For the same molecule, in data set [1] (early phase of the plasma decay curve), the “plasma concentration higher than that of FcF2-MMAE” value is recorded as > 2 orders of magnitude.

B5: FcF2-F106R-F110R-MMAE (conjugate)
chain: EPKSCDKTHTCPPCPAPELLGGPSVFLFPPKPKDTLMISRTPEVTCVVVDVSHEDPEVKFNWYVDGVEVHNAKTKPREEQYNSTYRVVSVLTVDHHDWLNGKEYKCKVSNKALPAPIEKTISKAKGQPREPQVYTLPPSRDELTKNQVSLTCLVKGFYPSDIAVEWESNGQPENNYKTTPPVLDSDGSFFLYSKLTVDKSRWQQGNVFSCSVMHEALHSHYTQKSLSLSPGKGGGGSGGGGSSRGIKGKRQRRISAEGSQACAKGCELCSEVNGCLKCSPKLFILLERNDIRQVGVCLPSCPPGYFDARNPDMNKCIKCKIEHCEACRSHNRCTKCKEGLYLHKGRCYPACPEGSSAANGTMECSSPGGGGSGGGGSLPETGGG
modifications: non-natural residues
In the case of B5, the IC50 ratio in the data set with OVCAR8/LGR5 cells (setting [5]) is 2.1.

B6: FcST4-MMAE: Mutated Fc with two receptor binding domains (ST) in series per chain (4 in dimer), sortase-conjugated to MMAE (conjugate)
chain: EPKSCDKTHTCPPCPAPELLGGPSVFLFPPKPKDTLMISRTPEVTCVVVDVSHEDPEVKFNWYVDGVEVHNAKTKPREEQYNSTYRVVSVLTVDHHDWLNGKEYKCKVSNKALPAPIEKTISKAKGQPREPQVYTLPPSRDELTKNQVSLTCLVKGFYPSDIAVEWESNGQPENNYKTTPPVLDSDGSFFLYSKLTVDKSRWQQGNVFSCSVMHEALHSHYTQKSLSLSPGKGGGGSGGGGSSRGIKGKRQRRISAEGSQACAKGCELCSEVNGCLKCSPKLFILLERNDIRQVGVCLPSCPPGYFDARNPDMNKCIKCKIEHCEACFSHNFCTKCKEGLYLHKGRCYPACPEGSSAANGTMECSSPGGGGSGGGGSSRGIKGKRQRRISAEGSQACAKGCELCSEVNGCLKCSPKLFILLERNDIRQVGVCLPSCPPGYFDARNPDMNKCIKCKIEHCEACFSHNFCTKCKEGLYLHKGRCYPACPEGSSAANGTMECSSPGGGGSGGGGSLPETGGG
modifications: non-natural residues
As to B6, in data set [2] (4 cycles), the “stability to freeze and thaw cycles (SEC130 trace)” value was “no significant change in the SEC130 trace”. Further, the stability result in data set [2] (at 4° C.) and in data set [2] (low pH of 3.0) was “remarkably stable” each time. Further, the “difference in targeted killing, empty vector vs LGR5-overexpressing cells” value in data set [3] and in data set [4] (OVCAR8) was “not statistically significant” throughout. In addition, the “effect of increase in binding domains on potency” value in data set [4] (cytotoxicity testing) was “did not enhance potency”.

B7: FcF2Δlinker-MMAE (conjugate)
chain: EPKSCDKTHTCPPCPAPELLGGPSVFLFPPKPKDTLMISRTPEVTCVVVDVSHEDPEVKFNWYVDGVEVHNAKTKPREEQYNSTYRVVSVLTVDHHDWLNGKEYKCKVSNKALPAPIEKTISKAKGQPREPQVYTLPPSRDELTKNQVSLTCLVKGFYPSDIAVEWESNGQPENNYKTTPPVLDSDGSFFLYSKLTVDKSRWQQGNVFSCSVMHEALHSHYTQKSLSLSPGKSRGIKGKRQRRISAEGSQACAKGCELCSEVNGCLKCSPKLFILLERNDIRQVGVCLPSCPPGYFDARNPDMNKCIKCKIEHCEACFSHNFCTKCKEGLYLHKGRCYPACPEGSSAANGTMECSSPLPETGGG
modifications: non-natural residues
B7: in the data set with OVCAR8/LGR5 cells (setting [6]), the “IC50 values or degree of selectivity compared with FcF2-MMAE” value is “no clear differences in IC50 values or degree of selectivity”; the “potency compared with FcF2-MMAE” value was “appeared to be less potent against both LGR5-poor and LGR5-rich cells”.

B8: FcF2-PNU159682: FcF2-His conjugated with PNU159682, an anthracycline derivative, using sortase A (conjugate)
chain: EPKSCDKTHTCPPCPAPELLGGPSVFLFPPKPKDTLMISRTPEVTCVVVDVSHEDPEVKFNWYVDGVEVHNAKTKPREEQYNSTYRVVSVLTVDHHDWLNGKEYKCKVSNKALPAPIEKTISKAKGQPREPQVYTLPPSRDELTKNQVSLTCLVKGFYPSDIAVEWESNGQPENNYKTTPPVLDSDGSFFLYSKLTVDKSRWQQGNVFSCSVMHEALHSHYTQKSLSLSPGKGGGGSGGGGSSRGIKGKRQRRISAEGSQACAKGCELCSEVNGCLKCSPKLFILLERNDIRQVGVCLPSCPPGYFDARNPDMNKCIKCKIEHCEACFSHNFCTKCKEGLYLHKGRCYPACPEGSSAANGTMECSSPGGGGSGGGGSLPET
modifications: cyclised or stapled
Consider B8, for which the IC50 ratio result in the data set with OVCAR8/LGR5 cells is “approximately 10”.

The record behind these values is US20240269303A1, “CELL TARGETING CONSTRUCTS AND USES THEREOF” (Research Development Foundation, priority 2022, published 2024).
